Test results published in patent publication US20210380680A1 (ZLLP, published 2021).
Where two headings read alike, the source gives them in different places.

Columns and labels:
[1] = molecular target: T1, human Claudin 18.2 (CLDN18.2) (human, UniProt P56856-2 1-261); assay: FACS
T1 construct: whole, on cells; recombinantly expressed on CHO, HEK293, NCI-N87, NUGC4 or PANC-1 cells; also called CHO-CLDN18.2

[2] = molecular target: T1, human Claudin 18.2 (CLDN18.2); assay: cell-based or functional assay
[3] = molecular target: T1, human Claudin 18.2 (CLDN18.2); assay: FACS on CHO-CLDN18.2 cells
[4] = molecular target: T1, human Claudin 18.2 (CLDN18.2); assay: cell-based or functional assay; remark: listed apart in the source
[5] = molecular target: T1, human Claudin 18.2 (CLDN18.2); assay: cell-based or functional assay; remark: listed apart in the source
[6] = molecular target: T1, human Claudin 18.2 (CLDN18.2); assay: cell-based or functional assay; remark: listed apart in the source
[7] = molecular target: T1, human Claudin 18.2 (CLDN18.2); assay: cell-based or functional assay; remark: listed apart in the source
[8] = molecular target: T1, human Claudin 18.2 (CLDN18.2); assay: cell-based or functional assay; remark: listed apart in the source
[9] = molecular target: T1, human Claudin 18.2 (CLDN18.2); assay: FACS on CHO-CLDN18.2 cells; remark: listed apart in the source
[10] = molecular target: T1, human Claudin 18.2 (CLDN18.2); assay: FACS Exp. 1, MFI ratio CHO-18.2 over CHO-18.1
[11] = molecular target: T1, human Claudin 18.2 (CLDN18.2); assay: FACS on CHO-CLDN18.2 cells; remark: listed apart in the source
[12] = molecular target: T1, human Claudin 18.2 (CLDN18.2); assay: FACS Exp. 2, MFI ratio CHO-18.2 over CHO-18.1

Binder | CDC EC50, human serum, CHO-CLDN18.2 [2] [nM] | EC50 [3] [nM] | % ADCC @ 6.67 nM, NCI-N87-CLDN18.2, FcR-TANK [4] [%] | ADCC EC50, NCI-N87-CLDN18.2, FcR-TANK [4] [nM] | ADCC EC50, NUGC4-CLDN18.2, PBMC [6] [nM] | ADCC EC50, NCI-N87-18.2 cells, FcR-TANK effectors [7] [nM] | % specific cytotoxicity @ 6.67 nM, NUGC4-CLDN18.2, PBMC [8] [%] | ADCC EC50, NUGC4-CLDN18.2 cells, PBMC [8] [nM] | further results
282A12F3-VH-N60E (antibody, human IgG1, kappa, V domains shown, chimeric human IgG1, PTM site removed) VH: QVQLKESGPVLVQPSQTLSLTCTVAGFSLTSYNVYWVRQPPGKGLEWMGVIWNTGATRYESTLKSRLSISKDTSKSQVFLKMNSLQTEDTATYYCARDSAMPAIPFAYWGQGTLVTVSS VL: DIVMTQSPSSLAVSAGETVTINCKSSQSLFGSVRQKNYLAWYQQKPGQSPKLLIYLASTRESGVPDRFIGSGSGTDFTLTISSVQAEDLAKYYCQQYYDIPWTFGGGTKLELKR | – | – | – | – | – | – | – | – | binding result [1]: binds
282A12F3-VH-N60Q (antibody, human IgG1, kappa, V domains shown, chimeric human IgG1, PTM site removed) VH: QVQLKESGPVLVQPSQTLSLTCTVAGFSLTSYNVYWVRQPPGKGLEWMGVIWNTGATRYQSTLKSRLSISKDTSKSQVFLKMNSLQTEDTATYYCARDSAMPAIPFAYWGQGTLVTVSS VL: DIVMTQSPSSLAVSAGETVTINCKSSQSLFGSVRQKNYLAWYQQKPGQSPKLLIYLASTRESGVPDRFIGSGSGTDFTLTISSVQAEDLAKYYCQQYYDIPWTFGGGTKLELKR | – | – | – | – | – | – | – | – | binding result [1]: binds
413H9F8-H2L2 (antibody, V domains shown, humanized IgG; constant regions not specified) VH: EVQLVESGGGLVQPGGSLRLSCAASGFTFSSFGMHWVRQAPGKGLEWVAYISSGSSPIYYVDKLKGRFTISRDNAKNSLYLQMNSLRAEDTAVYYCARAGYAVRNALDYWGQGTLVTVSS VL: DIVMTQSPDSLAVSLGERATINCKSSQSLLNVGNQKNYLAWYQQKPGQPPKLLIYGASTRESGVPDRFSGSGSGTDFTLTISSLQAEDVAVYFCQNDLFYPLTFGGGTKVEIK | 0.84 | 1.97 | 13.7 | 0.33 | 0.48 | – | – | – | % specific cytotoxicity @ 6.67 nM, NUGC4-CLDN18.2, PBMC [5]: 33.2%; ADCC EC50, NUGC4-CLDN18.2, PBMC [5]: 6.14 nM
413H9F8-H2L2-V2-DL (antibody, V domains shown) VH: EVQLVESGGGLVQPGGSLRLSCAASGFTFSSFGMHWVRQAPGKGLEWVAYISSGSSPIYYVDKLKGRFTISRDNAKNSLYLQMNSLRAEDTAVYYCARAGYAVRNALDYWGQGTLVTVSS VL: DIVMTQSPDSLAVSLGERATINCKSSQSLLNVGNQKNYLAWYQQKPGQPPKLLIYGASTRESGVPDRFSGSGSGTDFTLTISSLQAEDVAVYFCQNDLFYPLTFGGGTKVEIK | – | – | – | – | 0.0148 | – | – | – | –
413H9F8-H2L2-MG-DL (antibody, V domains shown) VH: EVQLVESGGGLVQPGGSLRLSCAASGFTFSSFGMHWVRQAPGKGLEWVAYISSGSSPIYYVDKLKGRFTISRDNAKNSLYLQMNSLRAEDTAVYYCARAGYAVRNALDYWGQGTLVTVSS VL: DIVMTQSPDSLAVSLGERATINCKSSQSLLNVGNQKNYLAWYQQKPGQPPKLLIYGASTRESGVPDRFSGSGSGTDFTLTISSLQAEDVAVYFCQNDLFYPLTFGGGTKVEIK | – | – | – | – | 0.0046 | – | – | – | –
413H9F8-VL-S32V (antibody, human IgG1, kappa, V domains shown, chimeric human IgG1, PTM site removed; also called 413H9F8-VL-32V; 413H9F8-VL-532V) VH: DVQLVESGGGSVQPGGSRRLSCAASGFTFSSFGMHWVRQAPEKGLEWVAYISSGSSPIYYVDKLKGRFTVSRDNPKNTLFLQMTSLRSEDTAMYYCARAGYAVRNALDYWGQGTSITVSS VL: DIVMTQSPSSLSVSVGEKVTLSCKSSQSLLNVGNQKNYLAWYQQKTGQPPKLLIYGASTRESGVPDRFIGSGSGTDFTLTISSVQAEDLAVYFCQNDLFYPLTFGAGTKLELKR | 0.76 | 2.14 | 13.9 | 0.33 | – | 7.84 | 31.4 | 7.69 | EC50 [9]: 1.84 nM
reference antibody 175D10 (xi175D10) (antibody, human IgG1, kappa, V domains shown, Fc variant D356/L358; also called chimeric 175D10) VH: QVQLQQPGAELVRPGASVKLSCKASGYTFTSYWINWVKQRPGQGLEWIGNIYPSDSYTNYNQKFKDKATLTVDKSSSTAYMQLSSPTSEDSAVYYCTRSWRGNSFDYWGQGTTLTVSS VL: DIVMTQSPSSLTVTAGEKVTMSCKSSQSLLNSGNQKNYLTWYQQKPGQPPKLLIYWASTRESGVPDRFTGSGSGTDFTLTISSVQAEDLAVYYCQNDYSYPFTFGSGTKLEIKR | 2.26 | 7.52 | 11.9 | – | – | 96.4 | 16.8 | 9.21 | MFI_CHO-18.2/CHO-18.1 (@30 ug/ml) [10]: 1030; EC50 [11]: 7.24 nM; EC50 [9]: 9.32 nM; MFI_CHO-18.2/CHO-18.1 (@30 ug/ml) [12]: 1390
364D1A7-VL-S32V (antibody, human IgG1, kappa, V domains shown, chimeric human IgG1, PTM site removed; also called 364D1A7-VL-32V) VH: DVQLVESGGGLVQPGGSRKLSCAASGFTFSSFGMHWVRQAPEKGLEWVAYISSGSGSIYYADTVKGRFTLSRDNPKNTLFLQMTSLRSEDTAIYYCATSYYYGNALEYWGQGTSVTVSS VL: DVVLTQSPSSLTVTEGEKVSMSCKSSQSLFNVGNQKNYLTWYQQKPGQTPTLLIYWASTRKSGVPDRFTGSGSGTDFTLTINTVQAEDLAVYYCQNVYSYPLTFGAGTKLDLKR | 1.49 | – | 15.3 | 0.34 | – | 12 | 26.6 | 6.36 | EC50 [11]: 3.87 nM
